Results taken from PMC7817217.

Biological target: bACE2-Rm fused with eGFP, expressed on the surface of HEK293T cells (Rhinolophus macrotis)
Experiment: flow cytometry on cells

## SARS-CoV-2 spike protein receptor binding domain (RBD) (from UniProt P0DTC2 319-541) (domain or fragment)
  percent of cells stained positive: 34.5%
